Assay results taken from patent publication US20250223358A1 (ANTENGENE BIOLOGICS, published 2025).
Positions count from the first letter of the chain named. Numbers in names are those of the source. Read-outs that look alike come from different tables or passages of the source. Each block holds one binder with its values, some of them ahead of it.

Experiments:
human CD3 [1] = biological target: T1, human CD3 (human, UniProt P07766 23-207; P04234 22-171; P09693 23-182); assay: FACS on Jurkat cells
T1 construct: whole, on cells; also called hCD3; CD3 on Jurkat cells

human CD3 [2] = biological target: T1, human CD3; assay: cell-based or functional assay
human CD3 [3] = biological target: T1, human CD3; assay: FACS on Jurkat cells; remark: listed apart in the source
human CD3 [4] = biological target: T1, human CD3; assay: cell-based or functional assay; remark: listed apart in the source

T1 sequence (P07766 23-207, chain 1 of 3): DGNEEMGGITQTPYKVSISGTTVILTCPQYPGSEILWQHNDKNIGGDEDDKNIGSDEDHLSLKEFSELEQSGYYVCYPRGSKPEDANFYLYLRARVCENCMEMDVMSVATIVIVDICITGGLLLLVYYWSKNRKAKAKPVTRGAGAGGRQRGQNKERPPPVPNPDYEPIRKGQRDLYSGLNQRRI
T1 sequence (P04234 22-171, chain 2 of 3): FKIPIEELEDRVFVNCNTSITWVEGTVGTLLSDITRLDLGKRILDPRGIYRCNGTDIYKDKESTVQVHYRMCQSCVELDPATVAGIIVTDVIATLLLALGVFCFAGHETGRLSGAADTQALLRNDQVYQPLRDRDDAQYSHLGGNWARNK
T1 sequence (P09693 23-182, chain 3 of 3): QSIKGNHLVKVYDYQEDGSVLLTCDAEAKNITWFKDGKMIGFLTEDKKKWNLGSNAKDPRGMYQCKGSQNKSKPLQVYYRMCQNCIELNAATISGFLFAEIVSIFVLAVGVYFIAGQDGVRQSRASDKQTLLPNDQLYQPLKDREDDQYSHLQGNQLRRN

EC50 (human CD3 [1]): 0.36 nM | Top FACS signal (human CD3 [1]): 1920 | EC50_Fold change (Jurkat-NFAT-luciferase activation, normalized to ch40-C12-C10-E9) (human CD3 [2]): 1.29 fold | Top signal_Fold change (Jurkat-NFAT-luciferase activation, normalized to ch40-C12-C10-E9) (human CD3 [2]): 0.79 fold
B1: hu40E9-L2H5 (antibody, V domains shown)
VH: EVQLVQSGAEVKKPGSSVKVSCKASGYTFSSYVIHWVRQAPGQGLEWMGYINPGSGVIKYNEKFKGRVTLTSDKSTSTAYMELSSLRSEDTAVYYCARDSYYSYDGFAYWGQGTLVTVSS
VL: EIVLTQSPDFQSVTPKEKVTITCSASSSVSYMHWYQQKPDQSPKRLIYDTSKLASGVPSRFSGSGSGTDFTLTINSLEAEDAATYYCQQWSSNPPTFGGGTKVEIK

EC50 (human CD3 [3]): 0.32 nM | Top FACS signal (human CD3 [3]): 1360 | EC50_Fold change (Jurkat-NFAT-luciferase activation, normalized to ch40-C12-C10-E9) (human CD3 [4]): 0.79 fold | Top FACS signal_Fold change (Jurkat-NFAT-luciferase activation, normalized to ch40-C12-C10-E9) (human CD3 [4]): 0.95 fold
B2: hu40E9-L2H3-S91R.L (antibody, V domains shown)
VH: B1 VH with G54Y, S55N, G56D
VL: B1 VL with S91R

EC50 (human CD3 [1]): 0.56 nM | Top FACS signal (human CD3 [1]): 1760 | EC50_Fold change (Jurkat-NFAT-luciferase activation, normalized to ch40-C12-C10-E9) (human CD3 [2]): 2.49 fold | Top signal_Fold change (Jurkat-NFAT-luciferase activation, normalized to ch40-C12-C10-E9) (human CD3 [2]): 0.87 fold
B3: hu40E9-L2H9 (antibody, V domains shown)
VH: B1 VH with G54Y, G56D, D99E, Y101F
VL: B1 VL

EC50 (human CD3 [3]): 0.86 nM | Top FACS signal (human CD3 [3]): 1570 | EC50_Fold change (Jurkat-NFAT-luciferase activation, normalized to ch40-C12-C10-E9) (human CD3 [4]): 0.8 fold | Top FACS signal_Fold change (Jurkat-NFAT-luciferase activation, normalized to ch40-C12-C10-E9) (human CD3 [4]): 0.89 fold
B4: hu40E9-L2H4 (antibody, V domains shown)
VH: B1 VH with M48I, G54Y, S55N, G56D, V68A
VL: B1 VL
notes: humanized 40-C12-C10-E9

EC50 (human CD3 [1]): 0.66 nM | Top FACS signal (human CD3 [1]): 2490 | EC50_Fold change (Jurkat-NFAT-luciferase activation, normalized to ch40-C12-C10-E9) (human CD3 [2]): 23.2 fold | Top signal_Fold change (Jurkat-NFAT-luciferase activation, normalized to ch40-C12-C10-E9) (human CD3 [2]): 1.47 fold
B5: hu40E9-L5H3 (antibody, V domains shown)
VH: B1 VH with G54Y, S55N, G56D
VL: B1 VL with S91R, N93S

EC50 (human CD3 [3]): 0.51 nM | Top FACS signal (human CD3 [3]): 1210 | EC50_Fold change (Jurkat-NFAT-luciferase activation, normalized to ch40-C12-C10-E9) (human CD3 [4]): 0.72 fold | Top FACS signal_Fold change (Jurkat-NFAT-luciferase activation, normalized to ch40-C12-C10-E9) (human CD3 [4]): 0.88 fold
B6: hu40E9-L2H3-N93W.L (antibody, V domains shown)
VH: B1 VH with G54Y, S55N, G56D
VL: B1 VL with N93W

EC50 (human CD3 [1]): 26.9 nM | Top FACS signal (human CD3 [1]): 255 | Top signal_Fold change (Jurkat-NFAT-luciferase activation, normalized to ch40-C12-C10-E9) (human CD3 [2]): 0.32 fold
B7: hu40E9-L4H8 (antibody, V domains shown)
VH: B1 VH with S55N, G56D, D99E, Y102S
VL: B1 VL with S91R, N93R

EC50 (human CD3 [1]): 1.52 nM | Top FACS signal (human CD3 [1]): 1900 | EC50_Fold change (Jurkat-NFAT-luciferase activation, normalized to ch40-C12-C10-E9) (human CD3 [2]): 1.95 fold | Top signal_Fold change (Jurkat-NFAT-luciferase activation, normalized to ch40-C12-C10-E9) (human CD3 [2]): 1.12 fold
B8: hu40E9-L4H7 (antibody, V domains shown)
VH: B1 VH with S55N, Y102S
VL: B1 VL with S91R, N93R

EC50 (human CD3 [3]): 0.75 nM | Top FACS signal (human CD3 [3]): 1250 | EC50_Fold change (Jurkat-NFAT-luciferase activation, normalized to ch40-C12-C10-E9) (human CD3 [4]): 1.33 fold | Top FACS signal_Fold change (Jurkat-NFAT-luciferase activation, normalized to ch40-C12-C10-E9) (human CD3 [4]): 0.97 fold
B9: hu40E9-L3H1 (antibody, V domains shown)
VH: B1 VH with Y27G, G54Y, S55N, G56D, L70I, S72A
VL: B1 VL with L46W, F70Y
notes: humanized 40-C12-C10-E9

EC50 (human CD3 [3]): 0.64 nM | Top FACS signal (human CD3 [3]): 1190 | EC50_Fold change (Jurkat-NFAT-luciferase activation, normalized to ch40-C12-C10-E9) (human CD3 [4]): 1.23 fold | Top FACS signal_Fold change (Jurkat-NFAT-luciferase activation, normalized to ch40-C12-C10-E9) (human CD3 [4]): 0.94 fold
B10: hu40E9-L2H3-Y101F.H (antibody, V domains shown)
VH: B1 VH with G54Y, S55N, G56D, Y101F
VL: B1 VL

EC50 (human CD3 [1]): 2.55 nM | Top FACS signal (human CD3 [1]): 1680 | EC50_Fold change (Jurkat-NFAT-luciferase activation, normalized to ch40-C12-C10-E9) (human CD3 [2]): 12.6 fold | Top signal_Fold change (Jurkat-NFAT-luciferase activation, normalized to ch40-C12-C10-E9) (human CD3 [2]): 1.01 fold
B11: hu40E9-L2H10 (antibody, V domains shown)
VH: B1 VH with G54Y, S55N, G56D, D105E, G106A
VL: B1 VL

EC50 (human CD3 [3]): 0.51 nM | Top FACS signal (human CD3 [3]): 1190 | EC50_Fold change (Jurkat-NFAT-luciferase activation, normalized to ch40-C12-C10-E9) (human CD3 [4]): 1.06 fold | Top FACS signal_Fold change (Jurkat-NFAT-luciferase activation, normalized to ch40-C12-C10-E9) (human CD3 [4]): 0.94 fold
B12: hu40E9-L2H3-Y54G.H (antibody, V domains shown)
VH: B1 VH with S55N, G56D
VL: B1 VL

EC50 (human CD3 [1]): 1.59 nM | Top FACS signal (human CD3 [1]): 2490 | EC50_Fold change (Jurkat-NFAT-luciferase activation, normalized to ch40-C12-C10-E9) (human CD3 [2]): 1.82 fold | Top signal_Fold change (Jurkat-NFAT-luciferase activation, normalized to ch40-C12-C10-E9) (human CD3 [2]): 1.08 fold
B13: hu40E9-L4H3 (antibody, V domains shown)
VH: B1 VH with G54Y, S55N, G56D
VL: B1 VL with S91R, N93R

EC50 (human CD3 [1]): 5 nM | Top FACS signal (human CD3 [1]): 2000 | EC50_Fold change (Jurkat-NFAT-luciferase activation, normalized to ch40-C12-C10-E9) (human CD3 [2]): 2.97 fold | Top signal_Fold change (Jurkat-NFAT-luciferase activation, normalized to ch40-C12-C10-E9) (human CD3 [2]): 0.85 fold
B14: hu40E9-L2H11 (antibody, V domains shown)
VH: B1 VH with G54Y, S55N, G56D, D105R, G106A
VL: B1 VL
